The assay deals with bovine serum albumin (bovine, UniProt P02769 25-607). Briefly: GM1-ELISA binding assay.
Chain of bovine serum albumin (P02769 25-607 limits assumed): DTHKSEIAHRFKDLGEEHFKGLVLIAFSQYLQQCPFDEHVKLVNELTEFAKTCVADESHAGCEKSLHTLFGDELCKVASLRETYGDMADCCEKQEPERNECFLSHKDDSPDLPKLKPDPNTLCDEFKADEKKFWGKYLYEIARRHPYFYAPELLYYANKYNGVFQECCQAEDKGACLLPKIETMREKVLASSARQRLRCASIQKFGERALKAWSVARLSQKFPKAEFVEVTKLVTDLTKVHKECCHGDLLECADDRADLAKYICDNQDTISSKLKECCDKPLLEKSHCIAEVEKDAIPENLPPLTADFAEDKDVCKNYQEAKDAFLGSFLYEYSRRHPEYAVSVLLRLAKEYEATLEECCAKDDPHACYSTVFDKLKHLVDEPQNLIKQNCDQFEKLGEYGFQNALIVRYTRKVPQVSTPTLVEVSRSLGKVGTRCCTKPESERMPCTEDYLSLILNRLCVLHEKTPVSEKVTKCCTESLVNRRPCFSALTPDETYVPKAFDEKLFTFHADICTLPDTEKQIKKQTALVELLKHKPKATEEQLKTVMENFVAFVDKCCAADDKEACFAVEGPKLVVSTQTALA

B1: bacterial cholera toxin B subunit (CTB), pentameric (other)
chain: TPQNITDLCAEYHNTQIYTLNDKIFSYTESLAGKREMAIITFKNGAIFQVEVPGSQHIDSQKKAIERMKDTLRIAYLTEAKVEKLCVWNNKTPHAIAAISMAN
Turning to B1, the binding result was “no binding”.
